Assay results as given in patent publication US20230045284.

T1: GST-Rit2, Q99578
T1 chain: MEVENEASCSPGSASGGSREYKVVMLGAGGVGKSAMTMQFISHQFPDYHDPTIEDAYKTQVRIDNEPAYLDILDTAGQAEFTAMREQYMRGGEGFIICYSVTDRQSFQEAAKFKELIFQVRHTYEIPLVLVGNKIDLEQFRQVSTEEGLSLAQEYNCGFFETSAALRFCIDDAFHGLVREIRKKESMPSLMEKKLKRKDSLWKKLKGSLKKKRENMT


Assays:
[1] = target: Recombinant 6xHis-tagged KRas (rKRas; KRas4B NP_004976.2), P01116
[2] = target: Recombinant 6xHis-tagged HRas (rHRas; NP_001123914.1), P01112
GST-Rit2, Q99578 = target: T1, GST-Rit2, Q99578
[3] = target: GST-HRas (rGST-HRas), P01112
[4] = target: Recombinant 6xHis-tagged NRas (rNRas; NP_002515.1), P01111
Chain of Recombinant 6xHis-tagged NRas (rNRas; NP_002515.1), P01111 (P01111 whole entry): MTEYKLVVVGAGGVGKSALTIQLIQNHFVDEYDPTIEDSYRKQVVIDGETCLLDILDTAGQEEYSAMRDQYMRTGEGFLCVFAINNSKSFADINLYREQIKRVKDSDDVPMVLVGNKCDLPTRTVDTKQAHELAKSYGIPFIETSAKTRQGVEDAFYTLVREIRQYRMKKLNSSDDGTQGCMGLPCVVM

Chain of GST-HRas (rGST-HRas), P01112 (P01112 whole entry, looked up): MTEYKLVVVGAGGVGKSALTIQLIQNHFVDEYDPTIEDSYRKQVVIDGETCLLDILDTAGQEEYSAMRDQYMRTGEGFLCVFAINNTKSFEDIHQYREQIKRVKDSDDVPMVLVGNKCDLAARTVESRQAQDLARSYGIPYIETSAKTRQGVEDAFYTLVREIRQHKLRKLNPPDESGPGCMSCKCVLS
Chain of Recombinant 6xHis-tagged HRas (rHRas; NP_001123914.1), P01112 (P01112 whole entry, looked up): as above

| Protein | in vitro cleavage, SDS-PAGE [1] | in vitro endopeptidase assay, SDS-PAGE [2] | in-vitro cleavage of GST-fusion GTPases (GST-Rit2, Q99578) | in vitro cleavage with varying concentrations of EDTA, equimolar 10 µM, 30 minutes at 37 C [1] | in vitro cleavage with varying concentrations of phenanthroline, equimolar 10 µM, 30 minutes at 37 C [1] | in vitro endopeptidase assay, SDS-PAGE [1] | in-vitro cleavage reaction of purified proteins [1] | in vitro cleavage of rGST-GTPase, SDS-PAGE [3] | in vitro endopeptidase assay, SDS-PAGE [4] |
| --- | --- | --- | --- | --- | --- | --- | --- | --- | --- |
| Recombinant 6xHis-tagged DUF5Ah (A. hydrophila ATCC7966 MARTXAh P3069-V3570) (protein) PGKTGVTERTARLFADVYSPDELKKAAQVFAKPIGESYQQILDQLATLHGASGQAKVEAALRLNNLIDDYLVKHEGSGRNPALSKLQSQLHGNLYRGELASLQAEVTALAKTRPDLAAIVIGKAAEEAQGQHPGLTQMVLRWAAQDPYLAAKAGYQGVVPADLPFDARFHIALGEQHDDLKKWLTEAQGKGLLNRAVLDDTRKVLHLGYSYQELQDMTGEQSAQMAVYFIKEAAKQAAPGSELSAELIMLDKFGDRRYLGELESRRIAQIENIYHSSKQTDVAAWDARYGGDALRTLNNQLDGESTLAGQLSRLLDNRNGLLIGETHGSDVNGLRFVNEQMDALKIQGVTVIALEHLRSELAQPLIDRYLAGGEMSPELTSMLKNKHLEPSLFERARERGMRIVALDDGSTARPAIAGTEHGLMYRAGAANNVAVEVLGKLPAGEKFVAIYGSAHLGSHKGIEGFVPGITHRLGLPALKVDADNRFHLQADDVSQRVEYADVGRKWTPVAAL | The recombinant protein rDUF5Ah was able to cleave rKRas in the in vitro reaction | – | – | – | – | – | – | – | – |
| Recombinant 6xHis-tagged DUF5Vv (rDUF5Vv; V. vulnificus CMCP6 MARTXVv Q3596-L4089) (protein) QELKERAKVFAKPIGASYQGILDQLDLVHQAKGRDQIAASFELNKKINDYIAEHPTSGRNQALTQLKEQVTSALFIGKMQVAQAGIDAIAQTRPELAARIFMVAIEEANGKHVGLTDMMVRWANEDPYLAPKHGYKGETPSDLGFDAKYHVDLGEHYADFKQWLETSQSNGLLSKATLDESTKTVHLGYSYQELQDLTGAESVQMAFYFLKEAAKKADPISGDSAEMILLKKFADQSYLSQLDSDRMDQIEGIYRSSHETDIDAWDRRYSGTGYDELTNKLASATGVDEQLAVLLDDRKGLLIGEVHGSDVNGLRFVNEQMDALKKQGVTVIGLEHLRSDLAQPLIDRYLATGVMSSELSAMLKTKHLDVTLFENARANGMRIVALDANSSARPNVQGTEHGLMYRAGAANNIAVEVLQNLPDGEKFVAIYGKAHLQSHKGIEGFVPGITHRLDLPALKVSDSNQFTVEQDDVSLRVVYDDVANKPKITFKGSL | – | showed the cleavage of rKRas, rHRas, and rNRas by rDUF5Vv | Rit2 was not cleaved at all | Cleavage was still observed | Cleavage was still observed | showed the cleavage of rKRas, rHRas, and rNRas by rDUF5Vv | rKRas was efficiently cleaved within 10 min in a concentration-dependent manner | DUF5Vv could cleave only HRas | The cleavage of rNRas was less efficient compared to rKRas and rHRas |
| Recombinant 6xHis-tagged DUF5Pa (P. asymbiotica ATCC43949 hypothetical protein, P41-V532) (protein) MVFEHDKTVERKRKPSIQLGNDKEKSSEQALELPQSKQNNPLLHDLITSNNLRKEAAVFAKQIGPSYQGILDGLEHLHNLSGNEQLTAGFELHRRITRYLEEHPDSKRNAALRRTQTQLGDLMFTGTLQEVRHPLLEMAETRPAMASQIYQIARDEAKGNTPGLTDLMVRWVKEDPYLAAKSGYQGKIPNDLPFEPKFHVELGDQFGEFKTWLDTAQNQGLLTHTRLDEQNKQVHLGYSYNELLDMTGGVESVKMAVYFLKEAAKQAEPGSAKSQEAILLNRFANPAYLTQLEQGRLAQMEAIYHSSHNTDVAAWDQQFSPDALTQFNHQLDNSVDLNSQLSFLLKDRQGLLIGESHGSDLNGLRFVEEQMDALKAHGVTVIGLEHLRSDLAQPLIDKFLTSENEPMPAELAAMLKTKHLSVNLFEQARSKQMKIIALDNNSTTRPAEGEHSLMYRAGAANNVAVERLQQLPAEEKFVAIYGNAHLQSHEGIDHFLPGITHRLGLPALKVDENNRFTAQADNINQRKCYDDVVEVSRIQLTS | shown to also cleave rKRas | – | – | – | – | – | – | – | – |
